In publication PMC4224607 (Chemical communications (Cambridge, England), 2014) one finds Kd data, which are given here for one molecule.

The test deals with human carbonic anhydrase II (human, UniProt P00918 1-260). The test can be described thus: SPR. On the technique in general: Surface plasmon resonance follows binding to a sensor surface in real time, without labels.

Non-standard residues stand in square brackets, D forms with d. No end group written: not given here.

B1: fplsk (peptide)
peptide: [dF][dP][dL][dS][dK]
B1 had a Kd of 5.8 µM.

One may read the Kd as the free concentration of one partner at which half of the binding sites on the other are occupied at equilibrium, for simple one-to-one binding. High values mean lower affinity, low ones higher affinity.
